Assay results: PMC3098174
Where two headings read alike, the source gives them in different places.

Columns and labels:
[1] = molecular target: Stingray Pancreatic Lipase (Dasyatis pastinaca) (common stingray Dasyatis pastinaca); test: lipase activity titration with colipase, Scatchard plot; apparent Kd from the slope of Scatchard plots; lipase (2.1 nM) with increasing amounts of colipase, emulsified olive oil as substrate, 6 mM NaTDC, pH 8.5, 37°C, pH-stat
[2] = molecular target: Stingray Pancreatic Lipase (Dasyatis pastinaca) (common stingray Dasyatis pastinaca)
[3] = molecular target: chicken pancreatic lipase (chicken)
[4] = molecular target: turkey pancreatic lipase (turkey)
[5] = molecular target: Stingray Pancreatic Lipase (Dasyatis pastinaca) (common stingray Dasyatis pastinaca); remark: listed apart in the source
[6] = molecular target: dromedary pancreatic lipase (dromedary)
[7] = molecular target: chicken pancreatic lipase (chicken); test: lipase activity titration with colipase, Scatchard plot; apparent Kd from the slope of Scatchard plots; lipase (2.1 nM) with increasing amounts of colipase, emulsified olive oil as substrate, 6 mM NaTDC, pH 8.5, 37°C, pH-stat
[8] = molecular target: turkey pancreatic lipase (turkey); test: as above
[9] = molecular target: Stingray Pancreatic Lipase (Dasyatis pastinaca) (common stingray Dasyatis pastinaca); test: as above; remark: listed apart in the source
[10] = molecular target: dromedary pancreatic lipase (dromedary); test: as above

Chain of Stingray Pancreatic Lipase (Dasyatis pastinaca) (common stingray Dasyatis pastinaca) (A0A059TA26 entry or part of it): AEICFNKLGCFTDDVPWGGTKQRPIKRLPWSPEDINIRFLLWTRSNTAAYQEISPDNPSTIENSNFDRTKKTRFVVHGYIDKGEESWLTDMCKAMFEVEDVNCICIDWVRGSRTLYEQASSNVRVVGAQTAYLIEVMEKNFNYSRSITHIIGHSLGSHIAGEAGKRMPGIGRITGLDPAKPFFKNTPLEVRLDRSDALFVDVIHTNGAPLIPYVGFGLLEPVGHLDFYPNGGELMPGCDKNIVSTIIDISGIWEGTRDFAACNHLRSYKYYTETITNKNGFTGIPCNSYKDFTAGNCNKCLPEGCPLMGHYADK

Substance	Kd [1] [nM]	kcat/Kd of SPL activated by colipase (olive oil emulsion, 6 mM NaTDC) (S^-1 M^-1 10^-9) [2]	kcat/Kd of lipase activated by stingray colipase (olive oil emulsion, 6 mM NaTDC) (S^-1 M^-1 10^-9) [3]	kcat/Kd of lipase activated by stingray colipase (olive oil emulsion, 6 mM NaTDC) (S^-1 M^-1 10^-9) [4]	kcat/Kd of lipase activated by stingray colipase (olive oil emulsion, 6 mM NaTDC) (S^-1 M^-1 10^-9) [5]	kcat/Kd of lipase activated by stingray colipase (olive oil emulsion, 6 mM NaTDC) (S^-1 M^-1 10^-9) [6]	Kd [7] [nM]	Kd [8] [nM]	Kd [9] [nM]	Kd [10] [nM]
chicken pancreatic colipase (natural protein)	3.9	576								
stingray pancreatic colipase (Dasyatis pastinaca) (natural protein)	1.2	2070	611	946	2070	930	4.5	2.9	1.15	3
turkey pancreatic colipase (natural protein)	3.6	599								
dromedary pancreatic colipase (natural protein)	2.2	1140								
